In patent publication US20160144021A1, “Vaccine Composition And Method Of Use” (MEDIMMUNE, LLC, priority 2013, published 2016):

Tests used:
Assay type in all cases: in vivo
[1] = Lung histopathology after RSV challenge, naive BALB/c mice; conditions: H&E lung sections day 4 post RSV challenge
Description: Lung sections (5 micron) were prepared using a microtome from paraffin-embedded formalin-fixed lung lobes harvested at day 4 post RSV challenge. Sections stained with hematoxylin and eosin were digitally scanned and examined by a licensed pathologist. Lung sections were evaluated for pulmonary lesion characteristics such as presence of bronchiolar hyperplasia, alveolitis, eosinophilic infiltrate and infiltration of the peribronchiolar/perivascular spaces.

[2] = tested on: RSV-F-derived MHC I restricted peptide; experiment: Granzyme B ELISPOT of splenocytes, naive BALB/c mice; conditions: splenocytes 4 days post challenge
Excerpt: FIGS. 1A-F are graphs showing immune responses to adjuvanted RSV sF vaccines in naïve BALB/c mice. Mice (N=7 per group) were immunized at days 0 and 14 with the indicated vaccines and challenged with 6 log10 PFU of RSV at day 28. Representative data shown from 1 of 2 experiments run with all groups. (A) Lung Viral Titers. Residual virus in the lungs of animals 4 days post challenge was quantified by plaque assay. Individual results are presented in log10, along with a bar representing the group geometric mean. Individuals with undetectable titers were scored at the assay limit of detection (LOD), ˜1.4 log10. (B) Serum RSV-GFP Neutralizing Titers. […] Individuals with undetectable titers were scored at the assay limit of detection (LOD) of 3.3 log2, indicated by a dashed line. […] Shown are the specific IFNγ, IL-5, IL-13, and IL-17 responses to an immunodominant MHC II restricted RSV-F peptide pool calculated by subtracting media control values from test values in multiplexed cytokine analysis. […] Day 28 sera (n=7 per group) were evaluated for F-specific IgG1 and IgG2a isotypes by endpoint titer ELISA. […]
Th1-type responses to a vaccine such as those seen with RSV sF+GLA-SE may support the development of strong CD8 T cell responses. […] To evaluate the cytolytic potential of these responding cells, we evaluated F-specific Granzyme B secretion by ELISPOT.

[3] = tested on: IL-5, IL-13, IFNγ, IL-17, eotaxin; experiment: Cytokines in lung homogenates after RSV challenge, naive BALB/c mice; design: pulmonary eotaxin levels (mean): unit not given here
Description: Lung homogenates were clarified by centrifugation prior to use. […] F-specific splenic cytokine production was determined by subtracting media alone values from F stimulated values.

RSV A2 = experiment: Serum RSV neutralizing titers, naive cotton rats; conditions: day 42, naive cotton rats
Description: RSV neutralizing antibody titers in heat-inactivated mouse sera at indicated timepoints were measured using a GFP-tagged RSV A2 micro-neutralization assay as previously described (Bernstein D I, et al. (2012) Phase 1 study of the safety and immunogenicity of a live, attenuated respiratory syncytial virus and parainfluenza virus type 3 vaccine in seronegative children. Pediatr Infect Dis J 31: 109-114). Briefly, confluent Vero cell monolayers were infected with 500 PFU of virus alone or virus pre-mixed with serially diluted serum samples, then incubated at 33° C. and 5% CO2 for 22 hrs. Plates were washed of free virus and GFP fluorescent viral foci were enumerated using the IsoCyte image scanner (Blueshift, Sunnyvale, Calif.).
Cotton rats are a well established model for RSV studies and are often used in the preclinical evaluation of potential RSV vaccine candidates. To confirm the immune profile of GLA-SE adjuvanted RSV sF vaccine in a second RSV challenge model, individual cotton rats were administered the same RSV sF subunit vaccines at similar doses used for mice. RSV sF at 0.3 μg without adjuvant or adjuvanted with GLA, SE, GLA-SE, or alum was given intramuscularly at days 0 and 22.

[4] = lung homogenates 4 days post RSV challenge

RSV sF: RSV soluble F protein, amino acids 1-524 of the RSV A2 F sequence lacking the transmembrane domain, given without adjuvant
pulmonary inflammation / lesion scores [1]: increased pulmonary lesion scores | F-specific Granzyme B ELISPOT responses (mean) [2]: 18 | mean IFNγ to IL-5 ratio in lung homogenates ([3]; 4 days post RSV challenge, ratio >1.0 = more Th1-type): 0.3 | IL-5 and IL-13 in the lungs [3, 4]: detected | pulmonary eotaxin levels (mean) [3, 4]: 911 | RSV neutralizing titers (mean) (RSV A2): 4.3 log2
